Data set [1] concerns the molecule itself. In words: formation of multimer (light scattering); self-association. On the procedure: The fluorescent protein was equilibrated with 50 mM HEPES (pH 7.5) and 150 mM KCl.
Data set [2] concerns the molecule itself. In words: molecular weight by light scattering (34 kDa).

B1: Azami-Green, fluorescent protein derived from Galaxea fascicularis (other)
chain: MSVIKPEMKIKLCMRGTVNGHNFVIEGEGKGNPYEGTQILDLNVTEGAPLPFAYDILTTVFQYGNRAFTKYPADIQDYFKQTFPEGYHWERSMTYEDQGICTATSNISMRGDCFFYDIRFDGVNFPPNGPVMQKKTLKWEPSTEKMYVRDGVLKGDVNMALLLEGGGHYRCDFKTTYKAKKDVRLPDYHFVDHRIEILKHDKDYNKVKLYENAVARYSMLPSQAK
notes: Expressed in E. coli with a C-terminal His-tag and purified on Ni-agarose; also called wild-type Azami-Green; fluorescent protein of the present invention derived from coral; not shown: C-terminal His-tag from the pET28 vector (NcoI/XhoI cloning)
In the case of B1, the binding result in data set [1] is recorded as “binds”.

B2: mAG, monomeric mutant of Azami-Green (V123T, Y188A, F190K) (other)
chain: MSVIKPEMKIKLCMRGTVNGHNFVIEGEGKGNPYEGTQILDLNVTEGAPLPFAYDILTTVFQYGNRAFTKYPADIQDYFKQTFPEGYHWERSMTYEDQGICTATSNISMRGDCFFYDIRFDGTNFPPNGPVMQKKTLKWEPSTEKMYVRDGVLKGDVNMALLLEGGGHYRCDFKTTYKAKKDVRLPDAHKVDHRIEILKHDKDYNKVKLYENAVARYSMLPSQAK
notes: also called modified monomeric fluorescent protein
Consider B2, for which the binding result in data set [2] is given as “no binding”.

These data come from patent US20050106661A1 (RIKEN, published 2005).
